# From patent US20190135872A1
# Columns and labels:
# [1] = target: JRFL NFL-CC2 (HIV-1 JRFL (clade B)); assay: ELISA, His-captured trimer
# [2] = target: BG505 NFL-TD+CC2-D4K_I559P w/rEK (HIV-1 BG505 (clade A)); assay: ELISA, His-captured trimer
# [3] = target: 16055 NFL-TD+CC2-D4K_L555P w/rEK (HIV-1 16055 (clade C)); assay: ELISA, His-captured trimer
# [4] = target: 16055 NFL-TD+CC2-D4K_L555P (HIV-1 16055 (clade C)); assay: ELISA, His-captured trimer
# [5] = target: BG505 NFL-TD+CC2-D4K_I559P (HIV-1 BG505 (clade A)); assay: ELISA, His-captured trimer
# [6] = target: 16055 NFL-Q563P (HIV-1 16055 (clade C)); assay: ELISA, His-captured trimer
# [7] = target: BG505 NFL-L555P (HIV-1 BG505 (clade A)); assay: ELISA, His-captured trimer
# [8] = target: 16055 NFL-L555P (HIV-1 16055 (clade C)); assay: ELISA, His-captured trimer
# [9] = target: BG505 NFL (I559P) parental (HIV-1 BG505 (clade A)); assay: ELISA, His-captured trimer
# [10] = target: 16055 NFL-TD+CC2-D4K_I559P (HIV-1 16055 (clade C)); assay: ELISA, His-captured trimer
# [11] = target: BG505 NFL-TD+CC2-D4K_L555P (HIV-1 BG505 (clade A)); assay: ELISA, His-captured trimer
# [12] = target: 16055 NFL-TD+CC2-D4K_I559P w/rEK (HIV-1 16055 (clade C)); assay: ELISA, His-captured trimer
# [13] = target: BG505 NFL-TD+CC2-D4K_L555P w/rEK (HIV-1 BG505 (clade A)); assay: ELISA, His-captured trimer
# [14] = target: 16055 NFL-CC2 (HIV-1 16055 (clade C)); assay: ELISA, His-captured trimer
# [15] = target: BG505 NFL-CC2 (HIV-1 BG505 (clade A)); assay: ELISA, His-captured trimer
# [16] = target: 16055 NFL-TD+CC2-D4K_L555P (HIV-1 16055 (clade C)); assay: BLI, IgG captured, trimer as analyte
# [17] = target: BG505 NFL-TD+CC2-D4K_I559P (HIV-1 BG505 (clade A)); assay: BLI, IgG captured, trimer as analyte
# [18] = target: 16055 NFL-Q563P (HIV-1 16055 (clade C)); assay: BLI, IgG captured, trimer as analyte
# [19] = target: BG505 NFL-L555P (HIV-1 BG505 (clade A)); assay: BLI, IgG captured, trimer as analyte
# [20] = target: 16055 NFL-L555P (HIV-1 16055 (clade C)); assay: BLI, IgG captured, trimer as analyte
# [21] = target: BG505 NFL-N554P (HIV-1 BG505 (clade A)); assay: BLI, IgG captured, trimer as analyte
# [22] = target: 16055 NFL-Q562P (HIV-1 16055 (clade C)); assay: BLI, IgG captured, trimer as analyte
# [23] = target: BG505 NFL (I559P) parental (HIV-1 BG505 (clade A)); assay: BLI, IgG captured, trimer as analyte
# [24] = target: BG505 NFL-Q562P (HIV-1 BG505 (clade A)); assay: BLI, IgG captured, trimer as analyte
# [25] = target: 16055 NFL-TD+CC2-D4K_I559P (HIV-1 16055 (clade C)); assay: BLI, IgG captured, trimer as analyte
# [26] = target: BG505 NFL-TD+CC2-D4K_L555P (HIV-1 BG505 (clade A)); assay: BLI, IgG captured, trimer as analyte
# [27] = target: BG505 NFL-S553P (HIV-1 BG505 (clade A)); assay: BLI, IgG captured, trimer as analyte
# [28] = target: 16055 NFL-CC2 (HIV-1 16055 (clade C)); assay: BLI, IgG captured, trimer as analyte
# [29] = target: BG505 NFL-CC2 (HIV-1 BG505 (clade A)); assay: BLI, IgG captured, trimer as analyte
# [30] = target: BG505 NFL-Q563P (HIV-1 BG505 (clade A)); assay: BLI, IgG captured, trimer as analyte
# [31] = target: 16055 NFL (I559P) parental (HIV-1 16055 (clade C)); assay: ELISA, His-captured trimer
substance,measurement,setting,value
PG16 (antibody),EC50,[1],0.216 µg/mL
same,EC50,[2],0.336 µg/mL
same,EC50,[3],0.122 µg/mL
same,EC50,[4],0.115 µg/mL
same,EC50,[5],0.206 µg/mL
same,EC50,[6],0.102 µg/mL
same,EC50,[7],0.101 µg/mL
same,EC50,[8],0.121 µg/mL
same,EC50,[9],0.144 µg/mL
same,EC50,[10],0.123 µg/mL
same,EC50,[11],0.215 µg/mL
same,EC50,[12],0.19 µg/mL
same,EC50,[13],0.307 µg/mL
same,EC50,[14],0.089 µg/mL
same,EC50,[15],0.143 µg/mL
same,Kd,[16],16 nM
same,koff,[16],0.0007 s⁻¹
same,kon,[16],43000 M⁻¹ s⁻¹
same,Kd,[17],59 nM
same,koff,[17],0.0048 s⁻¹
same,kon,[17],81000 M⁻¹ s⁻¹
same,Kd,[18],1.7 nM
same,koff,[18],0.0003 s⁻¹
same,kon,[18],190000 M⁻¹ s⁻¹
same,Kd,[19],7.8 nM
same,Kd,[20],6.9 nM
same,koff,[20],0.0009 s⁻¹
same,kon,[20],130000 M⁻¹ s⁻¹
same,Kd,[21],14 nM
same,Kd,[22],2.8 nM
same,koff,[22],0.0005 s⁻¹
same,kon,[22],170000 M⁻¹ s⁻¹
same,Kd,[23],15 nM
same,Kd,[24],15 nM
same,Kd,[25],23 nM
same,koff,[25],0.001 s⁻¹
same,kon,[25],43000 M⁻¹ s⁻¹
same,Kd,[26],70 nM
same,koff,[26],0.0057 s⁻¹
same,kon,[26],81000 M⁻¹ s⁻¹
same,Kd,[27],7.2 nM
same,Kd,[28],15 nM
same,koff,[28],0.0009 s⁻¹
same,kon,[28],61000 M⁻¹ s⁻¹
same,Kd,[29],43 nM
same,koff,[29],0.0033 s⁻¹
same,kon,[29],78000 M⁻¹ s⁻¹
same,Kd,[30],12 nM
VRC34 (antibody),EC50,[1],1.01 µg/mL
same,EC50,[2],0.037 µg/mL
same,EC50,[3],0.032 µg/mL
same,EC50,[31],0.692 µg/mL
same,EC50,[5],0.072 µg/mL
same,EC50,[7],0.017 µg/mL
same,EC50,[9],0.464 µg/mL
same,EC50,[11],2.43 µg/mL
same,EC50,[12],0.034 µg/mL
same,EC50,[13],0.035 µg/mL
same,EC50,[14],0.434 µg/mL
same,EC50,[15],0.457 µg/mL
same,Kd,[16],75 nM
same,koff,[16],0.0038 s⁻¹
same,kon,[16],50000 M⁻¹ s⁻¹
same,Kd,[17],12 nM
same,koff,[17],0.0005 s⁻¹
same,kon,[17],43000 M⁻¹ s⁻¹
same,Kd,[25],92 nM
same,koff,[25],0.0038 s⁻¹
same,kon,[25],41000 M⁻¹ s⁻¹
same,Kd,[26],44 nM
same,koff,[26],0.002 s⁻¹
same,kon,[26],44000 M⁻¹ s⁻¹
same,Kd,[28],63 nM
same,koff,[28],0.0027 s⁻¹
same,kon,[28],43000 M⁻¹ s⁻¹
same,Kd,[29],1.3 nM
same,koff,[29],4e-05 s⁻¹
same,kon,[29],27000 M⁻¹ s⁻¹
PGT151 (antibody),EC50,[1],0.139 µg/mL
same,EC50,[2],0.091 µg/mL
same,EC50,[3],0.056 µg/mL
same,EC50,[5],0.065 µg/mL
same,EC50,[6],0.047 µg/mL
same,EC50,[7],0.058 µg/mL
same,EC50,[8],0.048 µg/mL
same,EC50,[9],0.062 µg/mL
same,EC50,[11],0.073 µg/mL
same,EC50,[12],0.041 µg/mL
same,EC50,[13],0.085 µg/mL
same,EC50,[15],0.059 µg/mL
same,Kd,[16],13 nM
same,koff,[16],0.0055 s⁻¹
same,kon,[16],45000 M⁻¹ s⁻¹
same,Kd,[17],2.3 nM
same,koff,[17],0.0008 s⁻¹
same,kon,[17],340000 M⁻¹ s⁻¹
same,Kd,[18],8.9 nM
same,koff,[18],0.0016 s⁻¹
same,kon,[18],180000 M⁻¹ s⁻¹
same,Kd,[19],1.4 nM
same,Kd,[20],5.7 nM
same,koff,[20],0.0008 s⁻¹
same,kon,[20],150000 M⁻¹ s⁻¹
same,Kd,[21],1.4 nM
same,Kd,[22],9.2 nM
same,koff,[22],0.0016 s⁻¹
same,kon,[22],180000 M⁻¹ s⁻¹
same,Kd,[23],5.5 nM
same,Kd,[24],1.9 nM
same,Kd,[25],8.7 nM
same,koff,[25],0.0069 s⁻¹
same,kon,[25],790000 M⁻¹ s⁻¹
same,Kd,[26],3.7 nM
same,koff,[26],0.0014 s⁻¹
same,kon,[26],370000 M⁻¹ s⁻¹
same,Kd,[27],3.3 nM
same,Kd,[28],21 nM
same,koff,[28],0.0053 s⁻¹
same,kon,[28],250000 M⁻¹ s⁻¹
same,Kd,[29],1.9 nM
same,koff,[29],0.0006 s⁻¹
same,kon,[29],290000 M⁻¹ s⁻¹
same,Kd,[30],1.7 nM
PGT128 (antibody),EC50,[1],0.04 µg/mL
same,EC50,[2],0.036 µg/mL
same,EC50,[3],0.071 µg/mL
same,EC50,[4],0.05 µg/mL
same,EC50,[5],0.036 µg/mL
same,EC50,[6],0.068 µg/mL
same,EC50,[7],0.021 µg/mL
same,EC50,[8],0.056 µg/mL
same,EC50,[9],0.039 µg/mL
same,EC50,[10],0.055 µg/mL
same,EC50,[11],0.041 µg/mL
same,EC50,[12],0.08 µg/mL
same,EC50,[13],0.037 µg/mL
same,EC50,[14],0.135 µg/mL
same,EC50,[15],0.035 µg/mL
PGDM1400 (antibody),EC50,[1],0.2 µg/mL
same,EC50,[2],0.038 µg/mL
same,EC50,[3],0.025 µg/mL
same,EC50,[4],0.021 µg/mL
same,EC50,[5],0.038 µg/mL
same,EC50,[6],0.016 µg/mL
same,EC50,[7],0.02 µg/mL
same,EC50,[8],0.019 µg/mL
same,EC50,[9],0.039 µg/mL
same,EC50,[10],0.025 µg/mL
same,EC50,[11],0.042 µg/mL
same,EC50,[12],0.03 µg/mL
same,EC50,[13],0.04 µg/mL
same,EC50,[14],0.018 µg/mL
same,EC50,[15],0.018 µg/mL
same,Kd,[16],13 nM
same,koff,[16],0.0016 s⁻¹
same,kon,[16],120000 M⁻¹ s⁻¹
same,Kd,[17],18 nM
same,koff,[17],0.0016 s⁻¹
same,kon,[17],88000 M⁻¹ s⁻¹
same,Kd,[18],1.3 nM
same,koff,[18],0.0004 s⁻¹
same,kon,[18],300000 M⁻¹ s⁻¹
same,Kd,[19],5.1 nM
same,Kd,[20],2.3 nM
same,koff,[20],0.0004 s⁻¹
same,kon,[20],200000 M⁻¹ s⁻¹
same,Kd,[21],2.5 nM
same,Kd,[22],1.4 nM
same,koff,[22],0.0003 s⁻¹
same,kon,[22],230000 M⁻¹ s⁻¹
same,Kd,[23],11 nM
same,Kd,[24],13 nM
same,Kd,[25],21 nM
same,koff,[25],0.0021 s⁻¹
same,kon,[25],98000 M⁻¹ s⁻¹
same,Kd,[26],23 nM
same,koff,[26],0.002 s⁻¹
same,kon,[26],88000 M⁻¹ s⁻¹
same,Kd,[27],11 nM
same,Kd,[28],14 nM
same,koff,[28],0.0016 s⁻¹
same,kon,[28],110000 M⁻¹ s⁻¹
same,Kd,[29],24 nM
same,koff,[29],0.0018 s⁻¹
same,kon,[29],76000 M⁻¹ s⁻¹
same,Kd,[30],5 nM
